Article PMC3229523, “Identification of Lactoferricin B Intracellular Targets Using an Escherichia coli Proteome Chip” (PLoS ONE, 2011)
Ends that are not written are not given here. * marks the point of attachment. Biotin = O=C1N[C@H]2[C@H](CS[C@H]2CCCCC(=O)*)N1

What was measured:
Test in all cases: peptide or protein array; E. coli proteome chip: purified His-tagged proteins printed in duplicate on Fullmoon slides, blocked with 1% BSA; 10 nM N-terminal biotinylated LfcinB with 1% BSA, room temperature, 1 h; detected with DyLight 649-labeled streptavidin, ratio to DyLight 549-labeled anti-His antibody; ProCAT normalisation, local cut-off; triplicate chips
Settings in all cases: both partners purified
[1] = molecular target: T1, YibA (E. coli K-12, UniProt P0ADK6 1-280)
T1 construct: YibA, E. coli K-12
T1 sequence (looked up): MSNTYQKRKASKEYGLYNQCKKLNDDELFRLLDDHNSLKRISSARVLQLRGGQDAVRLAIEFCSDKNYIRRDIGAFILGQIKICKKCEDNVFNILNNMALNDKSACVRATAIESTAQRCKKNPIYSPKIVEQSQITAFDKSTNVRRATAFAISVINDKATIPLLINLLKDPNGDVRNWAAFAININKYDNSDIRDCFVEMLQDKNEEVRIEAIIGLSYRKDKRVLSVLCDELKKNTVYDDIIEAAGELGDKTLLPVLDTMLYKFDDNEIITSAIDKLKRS

[2] = molecular target: T2, SrmB (E. coli K-12, UniProt P21507 1-444)
T2 construct: SrmB, E. coli K-12
T2 sequence (looked up): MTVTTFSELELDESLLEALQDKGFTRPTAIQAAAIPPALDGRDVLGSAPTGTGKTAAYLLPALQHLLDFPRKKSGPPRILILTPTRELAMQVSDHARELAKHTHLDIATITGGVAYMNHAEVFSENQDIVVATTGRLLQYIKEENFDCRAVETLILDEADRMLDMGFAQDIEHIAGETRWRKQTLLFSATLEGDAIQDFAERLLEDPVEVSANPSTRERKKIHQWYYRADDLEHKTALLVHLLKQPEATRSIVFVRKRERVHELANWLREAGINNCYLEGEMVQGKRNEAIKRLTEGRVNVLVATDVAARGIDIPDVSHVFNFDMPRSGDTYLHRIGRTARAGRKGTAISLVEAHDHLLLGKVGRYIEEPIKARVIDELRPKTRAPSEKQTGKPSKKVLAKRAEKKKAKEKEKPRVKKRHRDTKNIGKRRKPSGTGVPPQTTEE

[3] = molecular target: T3, YibB (E. coli K-12, UniProt P25666 1-285)
T3 construct: YibB, E. coli K-12
T3 sequence (looked up): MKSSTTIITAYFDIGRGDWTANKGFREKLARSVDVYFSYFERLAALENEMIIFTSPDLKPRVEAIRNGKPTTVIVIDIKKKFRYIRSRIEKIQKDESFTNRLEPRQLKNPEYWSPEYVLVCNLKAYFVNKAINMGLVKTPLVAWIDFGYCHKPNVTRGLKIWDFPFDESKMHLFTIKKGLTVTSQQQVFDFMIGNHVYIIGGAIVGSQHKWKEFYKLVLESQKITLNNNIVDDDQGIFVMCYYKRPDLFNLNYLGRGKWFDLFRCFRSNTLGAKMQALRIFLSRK

[4] = molecular target: T4, MdoG (E. coli K-12, UniProt P33136 23-511)
T4 construct: MdoG, E. coli K-12
T4 sequence (looked up): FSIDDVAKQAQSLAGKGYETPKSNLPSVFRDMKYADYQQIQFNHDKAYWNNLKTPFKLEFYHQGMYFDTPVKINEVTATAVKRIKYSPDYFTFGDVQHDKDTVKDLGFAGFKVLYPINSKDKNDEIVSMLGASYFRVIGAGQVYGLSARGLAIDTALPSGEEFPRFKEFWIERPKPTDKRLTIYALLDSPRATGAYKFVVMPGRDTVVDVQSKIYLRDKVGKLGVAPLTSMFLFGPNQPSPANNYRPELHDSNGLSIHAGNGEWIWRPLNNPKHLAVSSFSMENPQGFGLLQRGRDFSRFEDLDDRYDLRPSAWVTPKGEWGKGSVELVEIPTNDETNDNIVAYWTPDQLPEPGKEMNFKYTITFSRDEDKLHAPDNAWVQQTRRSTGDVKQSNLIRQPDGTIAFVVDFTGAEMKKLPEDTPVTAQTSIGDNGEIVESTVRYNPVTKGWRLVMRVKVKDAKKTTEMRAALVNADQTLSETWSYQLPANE

[5] = molecular target: T5, CreB (E. coli K-12, UniProt P08368 1-229)
T5 construct: CreB, E. coli K-12
T5 sequence (looked up): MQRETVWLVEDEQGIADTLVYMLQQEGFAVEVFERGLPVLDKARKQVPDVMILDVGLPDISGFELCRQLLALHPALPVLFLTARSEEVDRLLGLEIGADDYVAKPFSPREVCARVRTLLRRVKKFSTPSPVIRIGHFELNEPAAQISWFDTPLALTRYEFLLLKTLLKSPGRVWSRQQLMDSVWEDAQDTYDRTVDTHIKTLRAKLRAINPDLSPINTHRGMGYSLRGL

Measured: binding result

B1: N-terminal biotinylated Lactoferricin B (peptide, UniProt P24627 36-60, looked up)
peptide: Biotin-FKCRRWQWRMKKLGAPSITCVRRAF
modifications: ends and bridges not checked
notes: lactoferricin B (LfcinB), cationic antimicrobial peptide of 25 amino acids; also called biotinylated LfcinB; biotin-labeled LfcinB; source: bought: Kelowna Inc
binds: [1] | [2] | [3] | [4] | [5]
